Results as given in US20210285024A1 (CENTRE NATIONAL DE LA RECHERCHE SCIENTIFIQUE CNRS, published 2021).

Molecular target: T1, recombinant human Vasohibin-2 (VASH2) (Homo sapiens, UniProt Q86V25 1-355, limits assumed)
T1 construct: Produced in E. coli (pET-28a(+)/pGEX) and purified by IMAC and ion exchange
Assay: recombinant complex purified and used as detyrosinase; no direct binding assay described

T1 sequence (Q86V25 whole entry): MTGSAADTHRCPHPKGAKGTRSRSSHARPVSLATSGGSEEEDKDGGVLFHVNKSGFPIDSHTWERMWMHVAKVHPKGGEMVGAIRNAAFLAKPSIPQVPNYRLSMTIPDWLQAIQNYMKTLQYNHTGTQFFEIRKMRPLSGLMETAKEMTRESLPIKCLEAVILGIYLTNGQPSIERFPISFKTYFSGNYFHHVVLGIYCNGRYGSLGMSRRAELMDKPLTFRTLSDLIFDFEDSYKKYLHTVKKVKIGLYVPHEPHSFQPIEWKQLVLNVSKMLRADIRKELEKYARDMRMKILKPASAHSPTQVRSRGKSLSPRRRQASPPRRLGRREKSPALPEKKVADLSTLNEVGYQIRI

binding result: binds
B1: Small vasohibin-binding protein (SVBP) (other)
chain: MDPPARKEKTKVKESVSRVEKAKQKSAQQELKQRQRAEIYALNRVMTELEQQQFDEFCKQMQPPGE
notes: Coexpressed with VASH1 or VASH2
